Data: the supplement of paper PMC9112550, “Optimization of the antimicrobial peptide Bac7 by deep mutational scanning” (BMC Biology, 2022)

Tested on: Escherichia coli TOP10
Assay: shrunken log2 fold change of peptide-encoding DNA abundance (4.5 h post-induction vs induction); higher = less antimicrobial activity (less host growth inhibition)
Details: time post-induction: 4.5 h; library: site-saturation at positions 5, 18, 19, 20
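Further: peptides expressed intracellularly from a pBAD plasmid library in pooled LB shake-flask culture, induced with 0.3% L-arabinose, DNA abundance read by NGS, three biological replicates, DESeq2 with apeglm shrinkage.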

Sequence	shrunken log2 fold change
RRIRARPPRLPRPRPRPFDVPRP	-0.0821
RRIRARPPRLPRPRPRPFFDPRP	0.107
RRIRARPPRLPRPRPRPFFKPRP	-0.0427
RRIRARPPRLPRPRPRPFGWPRP	0.24
RRIRARPPRLPRPRPRPFHLPRP	-0.36
RRIRARPPRLPRPRPRPFHNPRP	-0.625
RRIRARPPRLPRPRPRPFHVPRP	0.00498
RRIRARPPRLPRPRPRPFIMPRP	-0.507
RRIRARPPRLPRPRPRPFIPPRP	-0.492
RRIRARPPRLPRPRPRPFKFPRP	0.0771
RRIRARPPRLPRPRPRPFKQPRP	0.123
RRIRARPPRLPRPRPRPFKWPRP	-0.176
RRIRARPPRLPRPRPRPFLAPRP	-0.122
RRIRARPPRLPRPRPRPFMKPRP	0.528
RRIRARPPRLPRPRPRPFNPPRP	-0.432
RRIRARPPRLPRPRPRPFNQPRP	-0.257
RRIRARPPRLPRPRPRPFQDPRP	-0.297
RRIRARPPRLPRPRPRPFQPPRP	0.0667
RRIRARPPRLPRPRPRPFRYPRP	-0.283
RRIRARPPRLPRPRPRPFSYPRP	-0.0901

Sequence	shrunken log2 fold change
RRIRARPPRLPRPRPRPFTGPRP	-0.00992
RRIRARPPRLPRPRPRPFTSPRP	0.0705
RRIRARPPRLPRPRPRPFTTPRP	-0.0831
RRIRARPPRLPRPRPRPFVWPRP	0.204
RRIRARPPRLPRPRPRPFYHPRP	-0.462
RRIRARPPRLPRPRPRPGAQPRP	0.92
RRIRARPPRLPRPRPRPGAWPRP	0.259
RRIRARPPRLPRPRPRPGAYPRP	0.249
RRIRARPPRLPRPRPRPGCQPRP	0.168
RRIRARPPRLPRPRPRPGDHPRP	0.114
RRIRARPPRLPRPRPRPGEFPRP	0.388
RRIRARPPRLPRPRPRPGEHPRP	0.351
RRIRARPPRLPRPRPRPGEMPRP	0.228
RRIRARPPRLPRPRPRPGFVPRP	0.42
RRIRARPPRLPRPRPRPGGTPRP	0.41
RRIRARPPRLPRPRPRPGGYPRP	0.116
RRIRARPPRLPRPRPRPGIKPRP	-0.0359
RRIRARPPRLPRPRPRPGILPRP	0.287
RRIRARPPRLPRPRPRPGKLPRP	0.149
RRIRARPPRLPRPRPRPGNLPRP	-0.232

Sequence	shrunken log2 fold change
RRIRARPPRLPRPRPRPGPKPRP	0.421
RRIRARPPRLPRPRPRPGPNPRP	0.66
RRIRARPPRLPRPRPRPGPSPRP	0.6
RRIRARPPRLPRPRPRPGPWPRP	0.193
RRIRARPPRLPRPRPRPGSTPRP	0.247
RRIRARPPRLPRPRPRPGTVPRP	0.336
RRIRARPPRLPRPRPRPHAIPRP	0.0503
RRIRARPPRLPRPRPRPHCPPRP	-0.0475
RRIRARPPRLPRPRPRPHGLPRP	0.268
RRIRARPPRLPRPRPRPHIEPRP	-0.0716
RRIRARPPRLPRPRPRPHIVPRP	-0.000968
RRIRARPPRLPRPRPRPHMEPRP	0.157
RRIRARPPRLPRPRPRPHQAPRP	-0.0279
RRIRARPPRLPRPRPRPHQKPRP	-0.0267
RRIRARPPRLPRPRPRPHQLPRP	0.086
RRIRARPPRLPRPRPRPHREPRP	0.0826
RRIRARPPRLPRPRPRPHRVPRP	-0.13
RRIRARPPRLPRPRPRPHRWPRP	0.0671
RRIRARPPRLPRPRPRPHSSPRP	-0.137
RRIRARPPRLPRPRPRPHTCPRP	-0.29
